# Reference: US7272508B2, “Small molecule mimetics of erythropoietin” (The Scripps Research Institute, priority 1996, dated 2007)
# Positions of bridges follow the written chain, without caps; N, C: chain ends. No end group written: not given here.
# T1: EPO receptor (Homo sapiens, UniProt P19235)
# T1 sequence (P19235 25-508): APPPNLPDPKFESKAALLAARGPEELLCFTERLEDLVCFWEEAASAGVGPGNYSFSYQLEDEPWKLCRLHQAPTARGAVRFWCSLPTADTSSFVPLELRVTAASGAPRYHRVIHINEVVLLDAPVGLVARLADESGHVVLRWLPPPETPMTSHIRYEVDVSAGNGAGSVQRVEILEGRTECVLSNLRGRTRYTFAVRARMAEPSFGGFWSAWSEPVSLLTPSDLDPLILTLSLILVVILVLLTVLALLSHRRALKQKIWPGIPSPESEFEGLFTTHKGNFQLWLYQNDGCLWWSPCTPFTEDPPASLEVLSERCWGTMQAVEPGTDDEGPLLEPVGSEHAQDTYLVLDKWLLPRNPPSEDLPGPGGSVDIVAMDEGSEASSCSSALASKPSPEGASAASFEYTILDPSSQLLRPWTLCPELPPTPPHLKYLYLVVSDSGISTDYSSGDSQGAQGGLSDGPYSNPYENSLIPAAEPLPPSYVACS
# T2: EBP (extracellular fragment of human EPO receptor, residues 1-225) (Homo sapiens, UniProt P19235)
# T2 construct: consisting of residues 1-225, was expressed in Escherichia coli; made in house; host or cells: Escherichia coli
# T2 sequence (P19235 25-249): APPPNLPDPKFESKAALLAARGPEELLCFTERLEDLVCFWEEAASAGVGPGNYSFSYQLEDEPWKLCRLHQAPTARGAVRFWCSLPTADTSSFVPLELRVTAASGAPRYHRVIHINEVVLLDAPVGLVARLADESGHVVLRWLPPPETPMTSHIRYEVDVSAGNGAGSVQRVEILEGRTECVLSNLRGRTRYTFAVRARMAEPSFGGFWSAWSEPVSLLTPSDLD
# B1: EPO binding protein (EBP), extracellular fragment of human EPO receptor, residues 1-225 (receptor, UniProt P19235 25-249, looked up)
# chain: APPPNLPDPKFESKAALLAARGPEELLCFTERLEDLVCFWEEAASAGVGPGNYSFSYQLEDEPWKLCRLHQAPTARGAVRFWCSLPTADTSSFVPLELRVTAASGAPRYHRVIHINEVVLLDAPVGLVARLADESGHVVLRWLPPPETPMTSHIRYEVDVSAGNGAGSVQRVEILEGRTECVLSNLRGRTRYTFAVRARMAEPSFGGFWSAWSEPVSLLTPSDLD
# notes: range 1-225; they probably count on the mature receptor without signal peptide; Two EBP molecules stand in the asymmetric unit with two peptides; also called EBP1; EBP2
# Key:
# [1] = target: T1, EPO receptor; test: receptor binding assays, competition with EPO
# [2] = target: T2, EBP (extracellular fragment of human EPO receptor, residues 1-225); test: DPDPB crosslinking of EBP in solution (peptide-dependent dimerization); assay type: biochemical; conditions: co-incubation of EMP1, DPDPB and EBP; no significant dimer in the absence of peptide
# Protocol: To explore the interaction of EMP1 with EBP in solution we employed a bifunctionalsulphydryl reactive crosslinker DPDPB, [1,4-di-(2′-pyridyldithio propionamido) butane], in an attempt to stabilize a peptide-dependent dimeric structure. […] A dimeric EBP product is formed by co-incubation of EMP1, DPDPB and EBP. The amount of dimeric product increases with peptide concentration and no significant dimer product is observed in the absence of peptide. DPDPB-crosslinked products formed through disulfide-exchange reactions should be readily reversible by reduction as is seen for the covalently-linked EMP1-mediated dimer. […] The Cys^181 residues in D2 of the EBP dimer are 20.7 Å apart (Sγ-Sγ distance) which approximates the 16 Å length (and approximately 2 Å in bond length at each end) of the DPDPB cross-linker.
# [3] = system: EPO responsive cells; test: phosphorylation events and cell cycle progression in EPO responsive cells; assay type: cell-based
# [4] = system: nascent red blood cell production; test: in vivo assays of nascent red blood cell production; conditions: mice; two different in vivo assays of nascent red blood cell production
# [5] = system: cell lines engineered to be responsive to EPO; test: cellular proliferation of cell lines engineered to be responsive to EPO; assay type: cell-based
# [6] = target: B1; test: DPDPB crosslinking in solution; dimeric product increases with peptide concentration
# [7] = target: the molecule itself; test: DPDPB sulphydryl crosslinking of EBP in solution
molecule,measurement,setting,value
GGTYSCHFGPLTWVCKPQGG (disulfide 6-15 (inferred)) [EMP1],competition with EPO in receptor binding assays,[1],competes with EPO
same,formation of dimeric EBP product,[2],mediates formation of a soluble EBP dimer complex in solution
same,cascade of phosphorylation events and cell cycle progression,[3],induce a similar cascade of phosphorylation events and cell cycle progression
same,erythropoietic effects,[4],significant erythropoietic effects
same,induction of cellular proliferation,[5],induces cellular proliferation
"GGTYSCHFGPLTWVCKPQGG (disulfide 6-15, also called RWJ 61233; peptide-2) [EMP1 (EPO Mimetic Peptide 1)]",binding result,[6],binds
B1,binding result,[7],no binding
